Laboratory results: publication PMC9825189

Target: Csx30 (purified, for ITC) (Candidatus 'Scalindua brodae')
Test: ITC

## RpoE (purified, for ITC) (natural protein)
  stoichiometry N: 1
